The chains are these.
T1: Apm1-GST (purified full-length Apm1 fused to GST) (S. pombe, UniProt Q9HFE5 1-426)
T1 construct: Apm1, µ1 subunit of the clathrin-associated adaptor protein-1 (AP-1) complex of fission yeast, full length; the methods give no details of the construct or its expression; also called GST-fused Apm1; µ1 subunit of the AP-1 complex; source: purified; not shown: GST, C-terminal, kept
T1 sequence (looked up): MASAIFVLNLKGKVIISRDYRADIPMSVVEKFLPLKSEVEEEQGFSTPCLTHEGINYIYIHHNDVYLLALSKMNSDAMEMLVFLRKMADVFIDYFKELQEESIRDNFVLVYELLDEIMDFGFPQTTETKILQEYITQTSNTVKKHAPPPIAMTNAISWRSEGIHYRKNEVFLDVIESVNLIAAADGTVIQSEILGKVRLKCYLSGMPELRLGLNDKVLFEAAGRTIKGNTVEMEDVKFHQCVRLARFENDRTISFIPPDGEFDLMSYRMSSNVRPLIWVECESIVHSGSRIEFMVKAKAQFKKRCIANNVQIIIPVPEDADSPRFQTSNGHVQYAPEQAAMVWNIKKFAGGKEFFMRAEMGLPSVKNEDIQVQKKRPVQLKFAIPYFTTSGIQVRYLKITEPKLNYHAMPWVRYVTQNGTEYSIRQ

B1: GFP-Rho3 (wild-type Rho3 fused to GFP) (natural protein, S. pombe, UniProt O13928 1-205, looked up)
chain: MSSCFGSKKKPIYRKIVILGDGAAGKTSLLNVFTKGYFPQVYEPTIFENYIHDIFVDGNSIELSLWDTAGQEEYDQLRSLSYSDTHVIMICFAVDSRDSLENVITKWLPEVSSNCPGVKLVLVALKCDLRGADEEQVDHSKIIDYEEGLAAAKKINAVRYLECSAKLNRGVNEAFTEAARVALAAQPRGTKDGADESHGTGCIIA
notes: Rho3, Rho-family small GTPase of S. pombe (SPAC23C4.08); complete open reading frame amplified from genomic DNA, first methionine as in the Sanger Institute database; The name GFP-Rho3 puts GFP at the N-terminus, but the methods say the ORF 'was ligated to the N-terminus of the GFP'; also called GFP-fused Rho3; source: S. pombe cells, overexpressed from the inducible nmt1 promoter, …
B2: GFP-Rho3E48V (effector domain mutant of Rho3 fused to GFP) (natural protein, S. pombe, UniProt O13928 1-205, looked up)
chain: B1 chain with E48V
notes: Rho3 of S. pombe (SPAC23C4.08), complete open reading frame, Glu48 changed to Val by site-directed mutagenesis; Analogue of the budding yeast rho3-V51 mutant; also called Rho3EV; GFP-Rho3EV; source: S. pombe cells, overexpressed from the inducible nmt1 promoter, in lysate (pull-down); not shown: GFP (S65T), N-terminal, kept
B3: GFP-Rho3G22V (GTP-locked variant of Rho3 fused to GFP) (natural protein, S. pombe, UniProt O13928 1-205, looked up)
chain: B1 chain with G22V
notes: Rho3 of S. pombe (SPAC23C4.08), complete open reading frame, Gly22 changed to Val by site-directed mutagenesis; also called Rho3GV; GFP-Rho3GV; source: S. pombe cells, overexpressed from the inducible nmt1 promoter, in lysate (pull-down); not shown: GFP (S65T), N-terminal, kept

Residue numbers refer to the chain shown, from its start. Names may count otherwise.

One test concerns the target T1, Apm1-GST (purified full-length Apm1 …). Description: affinity capillary electrophoresis; GFP-fused Rho3 sample migrating in 50 mM phosphate buffer pH 6.8 containing Apm1-GST at 100 µg/ml (control: GST-Rho3 at 100 µg/ml); 15 kV, 25°C, laser-induced fluorescence detection; migration time-shift = t(control) - t(affinity).
As for B1, the migration time-shift turned out to be 0.45 min.
Take B2: the migration time-shift stood at 0.25 min.
Turning to B3, the migration time-shift was determined as 1.33 min.

The next test has the same target. Description: affinity capillary electrophoresis; GFP-fused Rho3 sample migrating in 50 mM phosphate buffer pH 6.8 containing Apm1-GST at 200 µg/ml (control: GST-Rho3 at 200 µg/ml); 15 kV, 25°C, laser-induced fluorescence detection; migration time-shift = t(control) - t(affinity).
For B1, the migration time-shift amounted to 0.84 min.
Still for that read-out and setting: as for B2, the figure is 0.82 min.
For the molecule B3, the migration time-shift is 0.94 min.

Source of the values: PMC3033427, “Role of the Small GTPase Rho3 in Golgi/Endosome Trafficking through Functional Interaction with Adaptin in Fission Yeast” (PLoS ONE, 2011).
